Experimental data published in paper PMC2761027.

Experiments:
purified protein = substrate: Nc1ncnc2c1ncn2[C@@H]1O[C@H](COP(=O)(O)OP(=O)(O)OP(=O)(O)O)[C@@H](O)[C@H]1O; test: purified protein; assay type: biochemical, Mycolicibacterium smegmatis; details: salmon sperm DNA, 5 mM MgCl2, pH 8.0, 37 °C, labelled compound
[1] = substrate: O=c1ccn([C@@H]2O[C@H](COP(=O)(O)OP(=O)(O)OP(=O)(O)O)[C@@H](O)[C@H]2O)c(=O)[nH]1; test: labelled UDP formation from labelled UTP, TLC, Michaelis-Menten fit; assay type: biochemical, Mycolicibacterium smegmatis; details: salmon sperm DNA, 5 mM MgCl2, pH 8.0, 37 °C, labelled compound

B1: UvrD1 (Mycolicibacterium smegmatis MC2 155) (protein)
chain: MTSPSATPFAAETDQLLDGLNPQQRQAVLHEGSPLLIVAGAGSGKTAVLTRRIAYLLAEREVGVGQVLAITFTNKAAAEMRERVVQLVGPRAKAMWVSTFHSTCVRILRNQASLLPGLNSNFSIYDSDDSRRLLMMIGKDLGLDTKRYSPRLLANGISNLKNELIGPEQAAAEASEASDEMATVIAQVYGEYQRRLRAANALDFDDLIGETVAVLQAFPQIAQYYRRRFRHILVDEYQDTNHAQYVLVRELVGHHLEDHDGVPPSELCVVGDADQSIYAFRGATIRNIEDFERDFPDATTILLEQNYRSTQTILNAANAVIARNTGRREKRLWTDAGQGELIVGYVADNEHDEARFVADEIDALTDRHGYNYNDIAVFYRTNNSSRALEEVFIRAGIPYKVVGGVRFYERREIRDIVAYLRVLDNPGDSVSMRRILNTPRRGIGDRAEACVAVYAENTGVSFNEALQAAAEGRVPMLNTRSEKCIASFVQMLDDLRGKLDEELGDLVEAVLERTGYRRELEASSDPQDLARLDNLNELVSVAHEFSIDLANAQALAEESDEPVDEDIPDTGVLAQFLERVSLVADADDIPEEGSGVVTMMTLHTAKGLEFPAVFVTGWEDGMFPHMRALGDPNELSEERRLAYVGITRARQRLYLSRAKVRSSWGQPMLNPESRFLREIPQELIDWRRIEAPTPAYAAPGRMSSSGGGGIGFGSPRPSPNRPGGGRNKPLMVLQPGDRVTHDKYGLGRVEEVAGTGESAMSLIDFGSAGRVKLMHNHAPLQKL
- Km (purified protein): 260 ± 40 µM
- kcat (purified protein): 265 ± 22 s⁻¹

B2: UvrD1 (Mycolicibacterium smegmatis MC2 155; Q24A) (protein)
chain: MTSPSATPFAAETDQLLDGLNPQARQAVLHEGSPLLIVAGAGSGKTAVLTRRIAYLLAEREVGVGQVLAITFTNKAAAEMRERVVQLVGPRAKAMWVSTFHSTCVRILRNQASLLPGLNSNFSIYDSDDSRRLLMMIGKDLGLDTKRYSPRLLANGISNLKNELIGPEQAAAEASEASDEMATVIAQVYGEYQRRLRAANALDFDDLIGETVAVLQAFPQIAQYYRRRFRHILVDEYQDTNHAQYVLVRELVGHHLEDHDGVPPSELCVVGDADQSIYAFRGATIRNIEDFERDFPDATTILLEQNYRSTQTILNAANAVIARNTGRREKRLWTDAGQGELIVGYVADNEHDEARFVADEIDALTDRHGYNYNDIAVFYRTNNSSRALEEVFIRAGIPYKVVGGVRFYERREIRDIVAYLRVLDNPGDSVSMRRILNTPRRGIGDRAEACVAVYAENTGVSFNEALQAAAEGRVPMLNTRSEKCIASFVQMLDDLRGKLDEELGDLVEAVLERTGYRRELEASSDPQDLARLDNLNELVSVAHEFSIDLANAQALAEESDEPVDEDIPDTGVLAQFLERVSLVADADDIPEEGSGVVTMMTLHTAKGLEFPAVFVTGWEDGMFPHMRALGDPNELSEERRLAYVGITRARQRLYLSRAKVRSSWGQPMLNPESRFLREIPQELIDWRRIEAPTPAYAAPGRMSSSGGGGIGFGSPRPSPNRPGGGRNKPLMVLQPGDRVTHDKYGLGRVEEVAGTGESAMSLIDFGSAGRVKLMHNHAPLQKL
- Km [1]: 1210 ± 130 µM
- kcat [1]: 86 ± 5 s⁻¹
- Km (purified protein): 690 ± 50 µM
- kcat (purified protein): 95 ± 3 s⁻¹
